Results taken from the supplement of paper PMC11246515.
± gives the standard deviation of the averaged measurements.

Assay: total protein half-life in vivo (active degradation + dilution); higher = more stable protein
[1] = E. coli NCM3722 delta-clpP delta-lon delta-hslV, growth: N-lim chemostat, doubling time 6 h
[2] = E. coli NCM3722 delta-clpP, growth: N-lim chemostat, doubling time 6 h
[3] = E. coli NCM3722 delta-hslV, growth: N-lim chemostat, doubling time 6 h
[4] = E. coli NCM3722 delta-lon, growth: N-lim chemostat, doubling time 6 h
[5] = E. coli NCM3722 delta-smpB, growth: N-lim chemostat, doubling time 6 h
[6] = wild type E. coli NCM3722, growth: C-lim chemostat, doubling time 3 h
[7] = wild type E. coli NCM3722, growth: C-lim chemostat, doubling time 6 h
[8] = wild type E. coli NCM3722, growth: C-lim chemostat, doubling time 12 h
[9] = wild type E. coli NCM3722, growth: N-lim chemostat, doubling time 6 h
[10] = wild type E. coli NCM3722, growth: N-lim chemostat, doubling time 12 h
[11] = wild type E. coli NCM3722, growth: P-lim chemostat, doubling time 6 h
[12] = wild type E. coli NCM3722, growth: P-lim chemostat, doubling time 12 h

## MKTLSPAVITLLWRQDAAEFYFSRLSHLPWAMLLHSGYADHPYSRFDIVVAEPICTLTTFGKETVVSESEKRTTTTDDPLQVLQQVLDRADIRPTHNEDLPFQGGALGLFGYDLGRRFESLPEIAEQDIVLPDMAVGIYDWALIVDHQRHTVSLLSHNDVNARRAWLESQQFSPQEDFTLTSDWQSNMTREQYGEKFRQVQEYLHSGDCYQVNLAQRFHATYSGDEWQAFLQLNQANRAPFSAFLRLEQGAILSLSPERFILCDNSEIQTRPIKGTLPRLPDPQEDSKQAVKLANSAKDRAENLMIVDLMRNDIGRVAVAGSVKVPELFVVEPFPAVHHLVSTITAQLPEQLHASDLLRAAFPGGSITGAPKVRAMEIIDELEPQRRNAWCGSIGYLSFCGNMDTSITIRTLTAINGQIFCSAGGGIVADSQEEAEYQETFDKVNRILKQLEK
[1]
  total protein half-life in vivo: 5 ± 0.22 h
[2]
  total protein half-life in vivo: 4.56 ± 0.35 h
[3]
  total protein half-life in vivo: 4.358 ± 0.037 h
[4]
  total protein half-life in vivo: 4.5 ± 0.1 h
[5]
  total protein half-life in vivo: 4.47 ± 0.21 h
[6]
  total protein half-life in vivo: 3.57 ± 0.57 h
[7]
  total protein half-life in vivo: 5.38 ± 0.12 h
[8]
  total protein half-life in vivo: 11 ± 0.69 h
[9]
  total protein half-life in vivo: 4.31 ± 0.16 h
[10]
  total protein half-life in vivo: 7.82 ± 0.28 h
[11]
  total protein half-life in vivo: 6.33 ± 0.27 h
[12]
  total protein half-life in vivo: 12.2 ± 1.5 h

## MKTMLAAYLPGNSTVDLREVAVPTPGINQVLIKMKSSGICGSDVHYIYHQHRATAAAPDKPLYQGFINGHEPCGQIVAMGQGCRHFKEGDRVLVYHISGCGFCPNCRRGFPISCTGEGKAAYGWQRDGGHAEYLLAEEKDLILLPDALSYEDGAFISCGVGTAYEGILRGEVSGSDNVLVVGLGPVGMMAMMLAKGRGAKRIIGVDMLPERLAMAKQLGVMDHGYLATTEGLPQIIAELTHGGADVALDCSGNAAGRLLALQSTADWGRVVYIGETGKVEFEVSADLMHHQRRIIGSWVTSLFHMEKCAHDLTDWKLWPRNAITHRFSLEQAGDAYALMASGKCGKVVINFPD
[1]
  total protein half-life in vivo: 4.41 ± 0.15 h
[2]
  total protein half-life in vivo: 2.87 h
[3]
  total protein half-life in vivo: 2.466 ± 0.011 h
[4]
  total protein half-life in vivo: 2.619 ± 0.012 h
[5]
  total protein half-life in vivo: 1.84 ± 1.1 h
[7]
  total protein half-life in vivo: 2.74 h
[8]
  total protein half-life in vivo: 5.33 ± 3.6 h
[9]
  total protein half-life in vivo: 2.17 ± 0.04 h
[10]
  total protein half-life in vivo: 3.6 ± 0.11 h
[11]
  total protein half-life in vivo: 4.27 ± 0.51 h
[12]
  total protein half-life in vivo: 8.54 ± 2.2 h

## MKTPLVTREGYEKLKQELNYLWREERPEVTKKVTWAASLGDRSENADYQYNKKRLREIDRRVRYLTKCLENLKIVDYSPQQEGKVFFGAWVEIENDDGVTHRFRIVGYDEIFGRKDYISIDSPMARALLKKEVGDLAVVNTPAGEASWYVNAIEYVKP
[1]
  total protein half-life in vivo: 4.94 ± 0.26 h
[2]
  total protein half-life in vivo: 3.85 ± 0.086 h
[3]
  total protein half-life in vivo: 3.36 ± 0.21 h
[4]
  total protein half-life in vivo: 4.34 ± 0.27 h
[5]
  total protein half-life in vivo: 3.07 ± 0.3 h
[6]
  total protein half-life in vivo: 2.83 ± 0.18 h
[7]
  total protein half-life in vivo: 4.63 ± 0.26 h
[8]
  total protein half-life in vivo: 7.33 ± 1.7 h
[9]
  total protein half-life in vivo: 3.48 ± 0.33 h
[10]
  total protein half-life in vivo: 5.226 ± 0.025 h
[11]
  total protein half-life in vivo: 4.65 ± 0.57 h
[12]
  total protein half-life in vivo: 8.01 ± 0.72 h

## MKTRTQQIEELQKEWTQPRWEGITRPYSAEDVVKLRGSVNPECTLAQLGAAKMWRLLHGESKKGYINSLGALTGGQALQQAKAGIEAVYLSGWQVAADANLAASMYPDQSLYPANSVPAVVERINNTFRRADQIQWSAGIEPGDPRYVDYFLPIVADAEAGFGGVLNAFELMKAMIEAGAAAVHFEDQLASVKKCGHMGGKVLVPTQEAIQKLVAARLAADVTGVPTLLVARTDADAADLITSDCDPYDSEFITGERTSEGFFRTHAGIEQAISRGLAYAPYADLVWCETSTPDLELARRFAQAIHAKYPGKLLAYNCSPSFNWQKNLDDKTIASFQQQLSDMGYKFQFITLAGIHSMWFNMFDLANAYAQGEGMKHYVEKVQQPEFAAAKDGYTFVSHQQEVGTGYFDKVTTIIQGGTSSVTALTGSTEESQF [P0A9G6]
[1]
  total protein half-life in vivo: 3.78 ± 0.38 h
[2]
  total protein half-life in vivo: 3.26 ± 0.34 h
[3]
  total protein half-life in vivo: 2.33 ± 0.14 h
[4]
  total protein half-life in vivo: 2.71 ± 0.22 h
[5]
  total protein half-life in vivo: 2.51 ± 0.07 h
[6]
  total protein half-life in vivo: 3.19 ± 0.085 h
[7]
  total protein half-life in vivo: 4.78 ± 0.25 h
[8]
  total protein half-life in vivo: 7.76 ± 0.96 h
[9]
  total protein half-life in vivo: 3.01 ± 0.6 h
[10]
  total protein half-life in vivo: 3.15 ± 0.29 h
[11]
  total protein half-life in vivo: 5.05 ± 0.28 h
[12]
  total protein half-life in vivo: 11.2 ± 3.2 h

## MKTSVRIGAFEIDDGELHGESPGDRTLTIPCKSDPDLCMQLDAWDAETSIPALLNGEHSVLYRTRYDQQSDAWIMRLA
[1]
  total protein half-life in vivo: 2.16 ± 0.13 h
[2]
  total protein half-life in vivo: 1.58 h
[3]
  total protein half-life in vivo: 0.651 h
[4]
  total protein half-life in vivo: 1.83 ± 1.1 h
[5]
  total protein half-life in vivo: 0.479 ± 0.045 h
[6]
  total protein half-life in vivo: 1.04 ± 0.18 h
[7]
  total protein half-life in vivo: 1.846 ± 0.018 h
[8]
  total protein half-life in vivo: 2.06 h
[9]
  total protein half-life in vivo: 0.85 h
[10]
  total protein half-life in vivo: 0.89 h
[11]
  total protein half-life in vivo: 0.882 ± 0.16 h
[12]
  total protein half-life in vivo: 1.16 h

## MKTYQGTHGVHILEYQSKINKLLCYLTNRYPRLIAVRVDLHYPKIVDNGDNICCFPNLEPGVISRMRESLRAKLEADRTRKVREDKRIYRCPLFIIWAKEYSESGKCHYHICLLFNKDAYYHLGDYDQDDNLRGMITGAWYSALRLERDDHPGLVHFPENCKYVLDTNSTDFQQNYQALLTRLDYLTKVESKVFGEGDRNFGCSQIEL
[8]
  total protein half-life in vivo: > 16 h

## MKVAKDLVVSLAYQVRTEDGVLVDESPVSAPLDYLHGHGSLISGLETALEGHEVGDKFDVAVGANDAYGQYDENLVQRVPKDVFMGVDELQVGMRFLAETDQGPVPVEITAVEDDHVVVDGNHMLAGQNLKFNVEVVAIREATEEELAHGHVHGAHDHHHDHDHDGCCGGHGHDHGHEHGGEGCCGGKGNGGCGCH [P0A9K9]
[1]
  total protein half-life in vivo: 4.87 ± 0.55 h
[2]
  total protein half-life in vivo: 4.07 ± 0.042 h
[3]
  total protein half-life in vivo: 3.46 ± 0.26 h
[4]
  total protein half-life in vivo: 4.18 ± 0.1 h
[5]
  total protein half-life in vivo: 3.3811 ± 0.00031 h
[6]
  total protein half-life in vivo: 2.88 ± 0.18 h
[7]
  total protein half-life in vivo: 4.63 ± 0.15 h
[8]
  total protein half-life in vivo: 8.14 ± 0.37 h
[9]
  total protein half-life in vivo: 3.47 ± 0.24 h
[10]
  total protein half-life in vivo: 5.28 ± 0.73 h
[11]
  total protein half-life in vivo: 4.54 ± 0.53 h
[12]
  total protein half-life in vivo: 8.69 ± 0.066 h
